The values that follow come from US20240343798A1 (GV20 THERAPEUTICS, published 2024).

B1: D1 domain of IGSF8 protein (ligand, UniProt Q969P0 28-149, looked up)
chain: REVLVPEGPLYRVAGTAVSISCNVTGYEGPAQQNFEWFLYRPEAPDTALGIVSTKDTQFSYAVFKSRVVAGEVQVQRLQGDAVVLKIARLQAQDAGIYECHTPSTDTRYLGSYSGKVELRVL
notes: domain: D1; also called D1 (Ig-V set) ECD of IGSF8
B2: KLRC1/KLRD1 heterodimeric receptor (receptor)
chain 1: not shown
chain 2: MAVFKTTLWRLISGTLGIICLSLMSTLGILLKNSFTKLSIEPAFTPGPNIELQKDSDCCSCQEKWVGYRCNCYFISSEQKTWNESRHLCASQKSSLLQLQNTDELDFMSSSQQFYWIGLSYSEEHTAWLWENGSALSQYLFPSFETFNTKNCIAYNPNGNALDESCEDKNRYICKQQLI
notes: whole, on cells; CT26 cells co-transduced with both lentiviral constructs; also called KLRC1&D1 heterodimer; KLRC1/D1
B3: Antibody C30 (B34) (antibody, human IgG1, V domains shown)
VH: EVQLLESGGGLVQPGGSLRLSCAASGFTFSSYAMSWVRQAPGKGLEWVSGITGSGGSTYYADSVKGRFTISRDNSKNTLYLQMNSLRAEDTAVYYCARGRQVDKWGQGTLVTVSS
VL: DIMLTQSPSSLSASVGDRVTITCRASQSIHNYLNWIQQTPGKAPKLLVFAASTLQRGVPPRYSGRGSGTEFTLTISSLQPEDFATYYCQQSYTTPLTFGGGTKVEIRR
notes: Fully human, expressed in CHO cells; also called mAb-B34 (C30)
B4: KIR3DL1 D3 construct (receptor, human, UniProt P43629 222-316, looked up)
chain: EKPSLSAQPGPKVQAGESVTLSCSSRSSYDMYHLSREGGAHERRLPAVRKVNRTFQADFPLGPATHGGTYRCFGSFRHSPYEWSDPSDPLLVSVT
notes: domain: D3; On CT26 cells, thy1.1 tag vector; also called D1/D3 construct
B5: KIR3DL2 D3 construct (receptor, human, UniProt P43630 222-316, looked up)
chain: EKPSLSAQPGPTVQAGENVTLSCSSWSSYDIYHLSREGEAHERRLRAVPKVNRTFQADFPLGPATHGGTYRCFGSFRALPCVWSNSSDPLLVSVT
notes: as for B4

The target in one assay is T1, KIR3DL2 (human, UniProt P43630 22-455).
T1 construct: whole, on cells; On mouse CT26 cells, lentiviral vector with a thy1.1 tag; also called KIR3DL1/2
T1 sequence (P43630 22-455): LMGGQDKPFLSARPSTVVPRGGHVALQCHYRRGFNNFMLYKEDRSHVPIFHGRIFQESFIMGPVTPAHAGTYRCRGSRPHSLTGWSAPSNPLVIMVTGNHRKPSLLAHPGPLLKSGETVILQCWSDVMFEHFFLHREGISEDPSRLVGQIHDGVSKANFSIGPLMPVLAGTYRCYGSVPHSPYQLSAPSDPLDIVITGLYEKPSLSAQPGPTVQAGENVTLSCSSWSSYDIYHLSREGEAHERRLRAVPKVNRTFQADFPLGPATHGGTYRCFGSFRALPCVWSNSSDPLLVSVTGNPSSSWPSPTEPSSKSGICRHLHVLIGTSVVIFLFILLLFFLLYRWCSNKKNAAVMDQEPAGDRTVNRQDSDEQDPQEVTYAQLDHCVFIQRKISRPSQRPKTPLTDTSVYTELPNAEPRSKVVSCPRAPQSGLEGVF
The assay can be described thus: flow cytometry, hFc fusion proteins on transduced CT26 cells, MFI normalized. The procedure: (§1) For this experiment, different human KIR receptors (KIR2DL1, KIR2DL2, KIR2DL3, KIR2DL4, KIR2DL5A, KIR2DL5B, KIR3DL1, KIR3DL2, KIR3DL3) were first cloned into a proprietary lentiviral vector containing a thy1.1 tag (FIG. 17A). Then mouse CT26 cells, were transducted by these lentiviral constructs, and IGSF8 binding was tested with biotin-labelled recombinant IGSF8 hFc fusion protein. The mean fluorescence intensity (MFI) of IGSF8 binding to different CT26 cells were normalized by the expression of different KIRs on CT26 cells using an anti-thy1.1 mAb (Biolegend) via flow cytometry.
(§2) KLRC1 also contains a ITIM motif in its intracellular domain, and was known to be a inhibitory receptor of NK or CD8⁺ T cells as part of a heterodimer with KLRD1 on the cell surface. […] Specifically, 100,000 CT26 cells overexpressing the antigens (KIRs or KLRs) were washed with PBS buffer containing 2% FBS, and incubated with 100 μL IGSF8 recombinant proteins or antibodies (5 μg/mL) for 30 minutes on ice. Cells were then washed twice with wash buffer, and incubated with 100 μL of 1:100 anti-human Fc-PE antibody for 15 minutes on ice. Cells were washed twice with wash buffer and analyzed on a FACS analyzer (CytoFlex, Beckman). In these experiments, the mean fluorescence intensity (MFI) of IGSF8 binding to different CT26 cells were normalized by the expression of different KLRs on CT26 cells using an anti-thy1.1 mAb via flow cytometry.
(A flow cytometer gives signals particle by particle.)

A further assay deals with T2, KIR3DL1 (human, UniProt P43629 22-444).
T2 construct: whole, on cells; On mouse CT26 cells, lentiviral vector with a thy1.1 tag; also called KIR3DL1/2
T2 sequence (P43629 22-444): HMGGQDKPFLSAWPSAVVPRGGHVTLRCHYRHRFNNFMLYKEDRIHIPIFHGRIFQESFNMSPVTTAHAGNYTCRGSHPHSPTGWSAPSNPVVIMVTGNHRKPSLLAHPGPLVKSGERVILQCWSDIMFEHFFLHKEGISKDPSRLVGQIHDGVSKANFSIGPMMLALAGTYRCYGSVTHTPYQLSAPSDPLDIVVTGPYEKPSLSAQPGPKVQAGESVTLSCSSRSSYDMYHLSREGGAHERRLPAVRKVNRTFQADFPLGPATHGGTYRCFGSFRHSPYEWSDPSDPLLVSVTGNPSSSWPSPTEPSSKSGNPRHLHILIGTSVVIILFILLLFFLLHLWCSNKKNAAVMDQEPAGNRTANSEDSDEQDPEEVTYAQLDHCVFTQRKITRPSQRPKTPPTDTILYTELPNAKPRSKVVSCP
Described as above. As for the experimental part:
as §1, §2

Assay [1] addresses B2. The assay is described as above. The procedure:
as §1, §2

Assay [2] has as its target T3, human IGSF8 expressed on the cell surface (human, UniProt Q969P0 28-613).
T3 construct: whole, on cells; Forced expression on CT26, MC38 or K562 cells; endogenous on A431 cells; also called full-length IGSF8
T3 sequence (looked up): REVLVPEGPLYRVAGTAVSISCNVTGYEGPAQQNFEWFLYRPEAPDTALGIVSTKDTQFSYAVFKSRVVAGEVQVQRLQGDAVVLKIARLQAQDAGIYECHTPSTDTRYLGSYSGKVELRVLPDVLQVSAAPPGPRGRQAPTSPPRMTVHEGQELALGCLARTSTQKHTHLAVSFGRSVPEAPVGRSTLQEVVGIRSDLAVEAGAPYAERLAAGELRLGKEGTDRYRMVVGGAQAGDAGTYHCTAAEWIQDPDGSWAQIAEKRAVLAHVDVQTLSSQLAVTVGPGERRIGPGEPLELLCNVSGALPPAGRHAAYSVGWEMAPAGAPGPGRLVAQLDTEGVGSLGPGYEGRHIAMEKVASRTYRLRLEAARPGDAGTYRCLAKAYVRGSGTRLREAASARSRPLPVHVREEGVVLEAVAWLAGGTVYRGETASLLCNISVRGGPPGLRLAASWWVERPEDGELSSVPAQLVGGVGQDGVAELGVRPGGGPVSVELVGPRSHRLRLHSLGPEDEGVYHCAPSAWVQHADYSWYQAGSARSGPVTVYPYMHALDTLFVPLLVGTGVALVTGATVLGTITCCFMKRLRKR
The assay can be described thus: cell-cell conjugate assay, labelled MC38 and CT26 cells mixed 1:1, flow cytometry. From the text: A competition assay (FIG. 23A) was then designed to test whether these seven mAbs block IGSF8 binding to the KIR3DL1/2 or the KLRC1&D1 heterodimer receptors. MC38 cells (a cell line derived from C57BL6 murine colon adenocarcinoma cells from NIH) with forced expression of IGSF8 protein on cell surface by lentiviral delivery of a human IGSF8-expression construct were labeled with CFSE (Carboxyfluorescein succinimidyi ester, Thermo). CT26 cells with forced expression of either KIR3DL1/2 or KLRC1&D1 were labeled with CellTrace Far Red (Thermo). The MC38 cells were then mixed at a 1:1 ratio with the CT26 cells for about an hour at room temperature. The formation of MC38 and CT26 cell/cell conjugates was assessed by flow cytometry.

The target in assay [3] is T4, recombinant human IGSF8 extracellular domain tagged by a human Fc region (IGSF8-hFc) (human, UniProt Q969P0 28-579).
T4 construct: extracellular domain; also called IGSF8-Fc; IGSF8 hFc fusion protein; not shown: human Fc region
T4 sequence (looked up): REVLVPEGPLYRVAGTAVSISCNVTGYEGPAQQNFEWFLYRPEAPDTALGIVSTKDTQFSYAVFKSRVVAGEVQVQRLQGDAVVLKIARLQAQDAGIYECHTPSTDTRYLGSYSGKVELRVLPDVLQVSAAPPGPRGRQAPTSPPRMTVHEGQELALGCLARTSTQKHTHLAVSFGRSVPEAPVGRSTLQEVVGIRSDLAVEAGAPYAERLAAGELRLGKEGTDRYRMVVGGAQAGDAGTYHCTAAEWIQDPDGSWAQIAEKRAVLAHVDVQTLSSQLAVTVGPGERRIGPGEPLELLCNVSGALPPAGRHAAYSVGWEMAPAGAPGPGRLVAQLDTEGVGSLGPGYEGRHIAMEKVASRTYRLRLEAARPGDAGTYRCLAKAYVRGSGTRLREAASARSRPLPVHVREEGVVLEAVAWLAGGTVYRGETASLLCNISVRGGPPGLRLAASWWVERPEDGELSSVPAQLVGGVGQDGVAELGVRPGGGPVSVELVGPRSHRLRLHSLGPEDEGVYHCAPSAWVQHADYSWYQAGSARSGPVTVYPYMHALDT
Briefly: flow cytometry, IGSF8-hFc on transduced CT26 cells, MFI normalized to Thy1.1 expression. The procedure:
as §2

Assay [4] concerns the target T5, IGSF8 protein without D1 domain (UniProt Q969P0 150-579, limits assumed).
T5 construct: domain: D2-D4 (without D1); also called D24; D2-4
T5 sequence (looked up): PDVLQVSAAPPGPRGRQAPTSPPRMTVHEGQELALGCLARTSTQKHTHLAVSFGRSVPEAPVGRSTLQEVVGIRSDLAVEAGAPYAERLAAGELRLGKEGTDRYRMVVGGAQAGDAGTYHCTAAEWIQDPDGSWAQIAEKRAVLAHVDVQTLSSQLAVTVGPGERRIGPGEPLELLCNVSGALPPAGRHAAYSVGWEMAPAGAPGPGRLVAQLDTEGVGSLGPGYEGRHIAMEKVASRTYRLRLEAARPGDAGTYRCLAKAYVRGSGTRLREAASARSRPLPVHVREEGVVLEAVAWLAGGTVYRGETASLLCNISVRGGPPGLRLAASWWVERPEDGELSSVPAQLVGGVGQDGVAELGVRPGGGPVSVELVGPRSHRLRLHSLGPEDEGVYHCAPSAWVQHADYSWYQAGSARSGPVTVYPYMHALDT
Briefly: flow cytometry, CT26 cells expressing IGSF8-D24 (IGSF8 without D1).

Assay [5] deals with T4, recombinant human IGSF8 extracellular …. The assay can be described thus: flow cytometry, IGSF8-hFc on CT26 cells with single-domain KIR3DL1/2 constructs, MFI normalized to Thy1.1.

With B1, the binding result (with KIR3DL2; with KIR3DL1; in assay [1]) was “binds” each time.
Turning to B2, the binding result in assay [2] and in assay [3] was “binds” throughout.
Turning to B3, the binding result in assay [4] is reported as “no binding”.
With B4, the binding result in assay [5] is reported as “no binding”.
Same read-out and setting: the same measure for B5: “no binding”.
